# Results: patent US12281147
# Legend:
# human IL-21R (human) [1] = target: human IL-21R (human) (UniProt Q9HBE5); assay: AlphaSeq yeast mating assay, pH 5 media
# human IL-21R (human) [2] = target: human IL-21R (human) (UniProt Q9HBE5); assay: AlphaSeq yeast mating assay, pH 6 media
# human IL-21R (human) [3] = target: human IL-21R (human) (UniProt Q9HBE5); assay: AlphaSeq yeast mating assay, unbuffered media
# human IL-21R (human) [4] = target: human IL-21R (human) (UniProt Q9HBE5); assay: AlphaSeq yeast mating assay, pH 7 media
Kd (human IL-21R (human) [1]) [nM],Kd (human IL-21R (human) [2]) [nM],Kd (human IL-21R (human) [3]) [nM],Kd (human IL-21R (human) [4]) [nM],Substance
58,20,1500,–,IL-21_I43L (from UniProt Q9HBE4 32-152) (ligand)
–,1200,–,2000,IL-21_R38M (from UniProt Q9HBE4 32-152) (ligand)
46,–,2400,–,IL-21_E93T (from UniProt Q9HBE4 32-152) (ligand)
–,–,250000,–,IL-21_R105K (from UniProt Q9HBE4 32-152) (ligand)
47,–,–,160,IL-21_E72L (from UniProt Q9HBE4 32-152) (ligand)
390,52,–,110,IL-21_R34F (from UniProt Q9HBE4 32-152) (ligand)
82000,–,170000,–,IL-21_I37G (from UniProt Q9HBE4 32-152) (ligand)
–,–,640000,53,IL-21_V46T (from UniProt Q9HBE4 32-152) (ligand)
–,11000,160000,–,IL-21_I96A (from UniProt Q9HBE4 32-152) (ligand)
52,36,–,56,IL-21_L120M (from UniProt Q9HBE4 32-152) (ligand)
–,24,–,120,IL-21_P132A (from UniProt Q9HBE4 32-152) (ligand)
55,–,–,26,IL-21_D66M (from UniProt Q9HBE4 32-152) (ligand)
25,–,2700,–,IL-21_D66R (from UniProt Q9HBE4 32-152) (ligand)
57,–,–,25,IL-21_V57M (from UniProt Q9HBE4 32-152) (ligand)
240000,92000,590000,–,IL-21_L103E (from UniProt Q9HBE4 32-152) (ligand)
170,26,85000,–,IL-21_S74H (from UniProt Q9HBE4 32-152) (ligand)
110,–,–,44,IL-21_N51G (from UniProt Q9HBE4 32-152) (ligand)
10000,550,1000,–,IL-21_K106N (from UniProt Q9HBE4 32-152) (ligand)
41000,1500,–,340,IL-21_E59R (from UniProt Q9HBE4 32-152) (ligand)
39000,–,–,340,IL-21_W73S (from UniProt Q9HBE4 32-152) (ligand)
–,8400,110000,–,IL-21_R38E (from UniProt Q9HBE4 32-152) (ligand)

Kd (human IL-21R (human) [1]) [nM],Kd (human IL-21R (human) [2]) [nM],Kd (human IL-21R (human) [3]) [nM],Kd (human IL-21R (human) [4]) [nM],Substance
–,76000,800000,–,IL-21_M39D (from UniProt Q9HBE4 32-152) (ligand)
–,–,2800,550,IL-21_P108E (from UniProt Q9HBE4 32-152) (ligand)
–,7800,–,3300,IL-21_F79P (from UniProt Q9HBE4 32-152) (ligand)
72000,–,–,9700,IL-21_L56N (from UniProt Q9HBE4 32-152) (ligand)
–,–,–,110,IL-21_P108Q (from UniProt Q9HBE4 32-152) (ligand)
–,50,–,200,IL-21_D44G (from UniProt Q9HBE4 32-152) (ligand)
170,–,–,78,IL-21_V57T (from UniProt Q9HBE4 32-152) (ligand)
–,–,160000,–,IL-21_L49R (from UniProt Q9HBE4 32-152) (ligand)
1500,550,110000,–,IL-21_I37E (from UniProt Q9HBE4 32-152) (ligand)
–,–,–,3000,IL-21_V57P (from UniProt Q9HBE4 32-152) (ligand)
57000,–,–,1100,IL-21_P108T (from UniProt Q9HBE4 32-152) (ligand)
–,–,560000,990,IL-21_V53N (from UniProt Q9HBE4 32-152) (ligand)
–,30000,110000,–,IL-21_L56E (from UniProt Q9HBE4 32-152) (ligand)
–,7300,590000,–,IL-21_D44P (from UniProt Q9HBE4 32-152) (ligand)
33000,–,–,330,IL-21_I37N (from UniProt Q9HBE4 32-152) (ligand)
150000,–,330000,–,IL-21_M39E (from UniProt Q9HBE4 32-152) (ligand)
–,–,1100,56,IL-21_V53A (from UniProt Q9HBE4 32-152) (ligand)
–,–,260000,–,IL-21_M39P (from UniProt Q9HBE4 32-152) (ligand)
75000,–,340000,–,IL-21_F76T (from UniProt Q9HBE4 32-152) (ligand)
350,44,–,160,IL-21_D44T (from UniProt Q9HBE4 32-152) (ligand)
–,6900,100000,–,IL-21_L56T (from UniProt Q9HBE4 32-152) (ligand)

Kd (human IL-21R (human) [1]) [nM],Kd (human IL-21R (human) [2]) [nM],Kd (human IL-21R (human) [3]) [nM],Kd (human IL-21R (human) [4]) [nM],Substance
–,50000,–,63000,IL-21_F76Q (from UniProt Q9HBE4 32-152) (ligand)
–,26000,–,950,IL-21_L42N (from UniProt Q9HBE4 32-152) (ligand)
1200,210,–,210,IL-21_L120V (from UniProt Q9HBE4 32-152) (ligand)
–,–,110000,240,IL-21_Y52N (from UniProt Q9HBE4 32-152) (ligand)
140,27,–,110,IL-21_R34V (from UniProt Q9HBE4 32-152) (ligand)
43,11,–,21,IL-21_L42Y (from UniProt Q9HBE4 32-152) (ligand)
–,46000,–,44000,IL-21_L56S (from UniProt Q9HBE4 32-152) (ligand)
150000,–,–,7200,IL-21_Q41K (from UniProt Q9HBE4 32-152) (ligand)
–,12000,270000,–,IL-21_V46D (from UniProt Q9HBE4 32-152) (ligand)
65000,4400,–,4500,IL-21_F79R (from UniProt Q9HBE4 32-152) (ligand)
79000,14000,–,9200,IL-21_F76H (from UniProt Q9HBE4 32-152) (ligand)
–,27000,530000,–,IL-21_D47P (from UniProt Q9HBE4 32-152) (ligand)
600000,–,540000,–,IL-21_L49E (from UniProt Q9HBE4 32-152) (ligand)
–,–,260000,240,IL-21_I95K (from UniProt Q9HBE4 32-152) (ligand)
–,160,–,200,IL-21_V53Q (from UniProt Q9HBE4 32-152) (ligand)
–,2800,340000,–,IL-21_Y52K (from UniProt Q9HBE4 32-152) (ligand)
–,–,170000,–,IL-21_I148S (from UniProt Q9HBE4 32-152) (ligand)
92000,3300,–,1400,IL-21_F79T (from UniProt Q9HBE4 32-152) (ligand)
–,–,2700,88,IL-21_V57L (from UniProt Q9HBE4 32-152) (ligand)
52000,2700,170000,–,IL-21_F79D (from UniProt Q9HBE4 32-152) (ligand)
15000,110,–,160,IL-21_I45S (from UniProt Q9HBE4 32-152) (ligand)

Kd (human IL-21R (human) [1]) [nM],Kd (human IL-21R (human) [2]) [nM],Kd (human IL-21R (human) [3]) [nM],Kd (human IL-21R (human) [4]) [nM],Substance
1400,–,2700,–,IL-21_R34P (from UniProt Q9HBE4 32-152) (ligand)
–,62,2500,–,IL-21_N51V (from UniProt Q9HBE4 32-152) (ligand)
580000,–,660000,–,IL-21_Q80D (from UniProt Q9HBE4 32-152) (ligand)
120,–,–,24,IL-21_L61H (from UniProt Q9HBE4 32-152) (ligand)
–,4600,330000,–,IL-21_D47S (from UniProt Q9HBE4 32-152) (ligand)
–,12000,270000,–,IL-21_R38Q (from UniProt Q9HBE4 32-152) (ligand)
100000,6900,270000,–,IL-21_F76E (from UniProt Q9HBE4 32-152) (ligand)
–,170000,340000,–,IL-21_M39R (from UniProt Q9HBE4 32-152) (ligand)
–,–,–,11000,IL-21_L42S (from UniProt Q9HBE4 32-152) (ligand)
43,–,–,120,IL-21_Q150S (from UniProt Q9HBE4 32-152) (ligand)
53000,2000,150000,–,IL-21_I95H (from UniProt Q9HBE4 32-152) (ligand)
270000,27000,270000,–,IL-21_V53P (from UniProt Q9HBE4 32-152) (ligand)
–,–,–,1000,IL-21_I45N (from UniProt Q9HBE4 32-152) (ligand)
–,–,890000,–,IL-21_M39K (from UniProt Q9HBE4 32-152) (ligand)
–,28000,780000,–,IL-21_A75N (from UniProt Q9HBE4 32-152) (ligand)
–,170,–,200,IL-21_I37R (from UniProt Q9HBE4 32-152) (ligand)
33,–,–,94,IL-21_N70A (from UniProt Q9HBE4 32-152) (ligand)
26000,–,–,140,IL-21_D33R (from UniProt Q9HBE4 32-152) (ligand)
